Data: patent US20200262920A1 (AMPHIVENA THERAPEUTICS, published 2020)
“And” between values parts separate entries of the source, which are not always exact repeats. Equal values may be shown once.

What was measured:
[1] = biological target: T1, human CD3 (human, UniProt P07766 23-207; P09693 23-182; P04234 22-171; P20963 22-164); test: flow cytometry titration, T cells (human CD3+)
T1 construct: whole, on cells; the description names the epsilon chain only 'in certain instances'; also called hu CD3; CD3 on T cells

[2] = biological target: T2, human CD33 (human, UniProt P20138 18-364); test: flow cytometry titration, HL-60 cells
T2 construct: whole, on cells; also called huCD33; CD33 on HL-60, KG-1, KG-1a, U-937 cells
Procedure, shortened: (§1)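 Cells titrated with CD33/CD3 2×2 T-cell engagers, detected via anti-His then FITC anti-mouse IgG on ice, with PI exclusion of dead cells. Background-subtracted mean fluorescence fit to one-site binding for KD; cross-reactivity ratio from KDs on CHO cells expressing recombinant cynomolgus or human CD33.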

[3] = biological target: T2, human CD33; test: flow cytometry titration, U-937 cells
Procedure, shortened: as §1

[4] = biological target: T2, human CD33; test: cell-based or functional assay
[5] = biological target: T2, human CD33; test: flow cytometry, HL-60 cells
[6] = biological target: T3, cynomolgus CD33 (cynomolgus, UniProt A0A7N9ICR5 17-359); test: ratio of KD by flow cytometry on CHO cells expressing cynomolgus CD33 vs human CD33
T3 construct: whole, on cells; also called cynoCD33; cyno CD33
Protocol: Cells were incubated with 100 μL of serial dilutions of CD33/CD3 2×2 T-cell engagers. After washing three times with FACS buffer the cells were incubated with 0.1 mL of 10 μg/mL mouse monoclonal anti-His antibody in the same buffer for 45 min on ice. After a second washing cycle, the cells were incubated with 0.1 mL of 15 μg/mL FITC-conjugated goat anti-mouse IgG antibodies under the same conditions as before. As a control, cells were incubated with the anti-His IgG followed by the FITC-conjugated goat anti-mouse IgG antibodies without anti-CD33 2×2 T-cell engagers. The cells were then washed again and resuspended in 0.2 mL of FACS buffer containing 2 μg/mL propidium iodide (PI) in order to exclude dead cells. The fluorescence of 1×10⁴ living cells was measured using a Beckman-Coulter FC500 MPL flow cytometer using the MXP software (Beckman-Coulter, Krefeld, Germany) or a Millipore Guava EasyCyte flow cytometer using the Incyte software (Merck Millipore, Schwalbach, Germany). Mean fluorescence intensities of the cell samples were calculated using CXP software (Beckman-Coulter, Krefeld, Germany) or Incyte software (Merck Millipore, Schwalbach, Germany). After subtracting the fluorescence intensity values of the cells stained with the secondary and tertiary reagents alone the values were used for calculation of the KD values with the equation for one-site binding (hyperbola) of the GraphPad Prism (version 6.00 for Windows, GraphPad Software, La Jolla Calif. USA).
CD3 binding affinity and crossreactivity were evaluated in titration and flow cytometric experiments on CD3⁺ Jurkat cells (provided by Dr. Moldenhauer, DKFZ Heidelberg; human acute T-cell leukemia) and the cynomolgus CD3⁺ HSC-F cell line (JCRB, cat.:JCRB 1164). […] The KD ratio of crossreactivity was calculated using the KD values determined on the CHO cell lines expressing either recombinant human or recombinant cynomolgus antigens.

[7] = biological target: T2, human CD33; test: flow cytometry titration, KG-1 cells
Procedure, shortened: as §1

[8] = biological target: T1, human CD3; test: flow cytometry, human T-cells
[9] = biological target: T1, human CD3; test: cell-based or functional assay
[10] = biological target: T2, human CD33; test: cell-based or functional assay; remark: listed apart in the source
[11] = biological target: T2, human CD33; test: cell-based or functional assay; remark: listed apart in the source
[12] = biological target: T2, human CD33; test: cell-based or functional assay; remark: listed apart in the source

T2 sequence (P20138 18-364): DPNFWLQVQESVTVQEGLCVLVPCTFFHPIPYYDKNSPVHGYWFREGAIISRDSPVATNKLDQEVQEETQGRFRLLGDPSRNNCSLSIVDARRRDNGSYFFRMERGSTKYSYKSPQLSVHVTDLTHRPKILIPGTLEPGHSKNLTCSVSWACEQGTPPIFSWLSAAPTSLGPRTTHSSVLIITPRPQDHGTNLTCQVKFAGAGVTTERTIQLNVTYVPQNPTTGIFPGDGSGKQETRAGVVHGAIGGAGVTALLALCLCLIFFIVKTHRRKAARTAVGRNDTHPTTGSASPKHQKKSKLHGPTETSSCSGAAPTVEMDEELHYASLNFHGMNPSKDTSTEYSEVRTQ
T1 sequence (P07766 23-207, chain 1 of 4): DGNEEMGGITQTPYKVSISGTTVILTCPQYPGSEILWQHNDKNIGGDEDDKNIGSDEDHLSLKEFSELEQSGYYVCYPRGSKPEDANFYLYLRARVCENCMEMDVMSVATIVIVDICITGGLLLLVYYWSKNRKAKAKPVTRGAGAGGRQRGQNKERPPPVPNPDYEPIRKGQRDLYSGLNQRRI
T1 sequence (P09693 23-182, chain 2 of 4): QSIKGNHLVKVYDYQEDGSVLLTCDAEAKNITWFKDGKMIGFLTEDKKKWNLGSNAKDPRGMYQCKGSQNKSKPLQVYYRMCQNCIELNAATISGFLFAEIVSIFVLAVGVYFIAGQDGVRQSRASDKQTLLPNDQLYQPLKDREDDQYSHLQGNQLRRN
T1 sequence (P04234 22-171, chain 3 of 4): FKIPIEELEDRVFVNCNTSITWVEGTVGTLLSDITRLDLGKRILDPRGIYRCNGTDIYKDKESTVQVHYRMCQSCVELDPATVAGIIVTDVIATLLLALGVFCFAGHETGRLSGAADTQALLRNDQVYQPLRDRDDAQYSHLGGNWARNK
T1 sequence (P20963 22-164, chain 4 of 4): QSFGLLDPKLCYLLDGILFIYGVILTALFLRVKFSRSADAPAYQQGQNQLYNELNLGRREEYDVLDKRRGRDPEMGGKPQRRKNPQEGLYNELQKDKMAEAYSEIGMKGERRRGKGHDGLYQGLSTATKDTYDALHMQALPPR

Row | Kd [1] | Kd [2] | Kd [3] | Kd [5] | KD ratio cynoCD33/huCD33 [6] | Kd [7] | Kd [8] | CD25 Induction EC50 [9] | CD69 Induction EC50 [9] | T cell Proliferation in PBMC EC50 [9] | IC50, lysis of KG-1 cells with human T cells [12] | Binder | EC50 on HL-60 (cytotoxicity) [4] | further results
1 | 3300 pM | 5000 pM | 24400 pM | 5000 pM | 1.9 | 52500 pM | 3300 pM | 30 pM | 114 pM | 30 pM |  | CD33/CD3 2×2 T-cell engager 17 (bispecific antibody, Non-covalent homodimer) DIQMTQSPSSLSASVGDRVTITCRSSTGAVTTSNYANWVQQKPGKAPKALIGGTNKRAPGVPSRFSGSLIGDKATLTISSLQPEDFATYYCALWYSNLWVFGQGTKVEIKGGSGGSQVQLVQSGAEVKKPGESLKISCKGSGYSFTSYWIGWVRQMPGKGLEWMGIIYPGDSDTRYSPSFQGQVTISADKSISTAYLQWSSLKASDTAMYYCARHKRGSDAFDIWGQGTTVTVSSGGSGQSVLTQPPSVSGAPGQRVTISCTGSSSNIGAGYDVHWYQQLPGTAPKLLIYGNSNRPSGVPDRFSGSKSGTSASLAITGLQAEDEADYYCQSYDSSLSDVVFGGGTKLTVLGGSGGSEVQLVESGGGLVQPGGSLRLSCAASGFTFSTYAMNWVRQAPGKGLEWVGRIRSKYNNYATYYADSVKDRFTISRDDSKNSLYLQMNSLKTEDTAVYYCARHGNFGNSYVSYFAYWGQGTLVTVSSAAAGSHHHHHH | 18.4 pM | 
2 | 2100 pM | 9700 pM | 80200 pM | 9700 pM | 0.9 | 25100 pM | 2100 pM |  | 225 pM | 500 pM |  | CD33/CD3 2×2 T-cell engager 21 (bispecific antibody, Non-covalent homodimer) DIQMTQSPSSLSASVGDRVTITCRSSTGAVTTSNYANWVQQKPGKAPKALIGGTNKRAPGVPSRFSGSLIGDKATLTISSLQPEDFATYYCALWYSNLWVFGQGTKVEIKGGSGGSQVQLVQSGAEVKKPGSSVKVSCKASGGTFSSYAISWVRQAPGQGLEWMGGIYPIFGSANYAQKFQGRVTITADESTSTAYMELSSLRSEDTAVYYCAREYYYDSSEWAFDIWGQGTLVTVSSGGSGQSVLTQPPSASGTPGQRVTISCSGSSSNIGSNIVNWYQQLPGTAPKLLIYSNNQRPSGVPDRFSGSKSGTSASLAISGLQSEDEADYYCAAWDDSLKGYVFGGGTKLTVLGGSGGSEVQLVESGGGLVQPGGSLRLSCAASGFTFSTYAMNWVRQAPGKGLEWVGRIRSKYNNYATYYADSVKDRFTISRDDSKNSLYLQMNSLKTEDTAVYYCARHGNFGNSYVSYFAYWGQGTLVTVSSAAAGSHHHHHH | 7.6 pM | 
3 | 4100 pM | 700 pM | 8600 pM | 700 pM | 0.6 | 2000 pM | 4100 pM | 10 pM | 4 pM | 7 pM |  | CD33/CD3 2×2 T-cell engager 22 (bispecific antibody, Non-covalent homodimer) DIQMTQSPSSLSASVGDRVTITCRSSTGAVTTSNYANWVQQKPGKAPKALIGGTNKRAPGVPSRFSGSLIGDKATLTISSLQPEDFATYYCALWYSNLWVFGQGTKVEIKGGSGGSQVQLVQSGAEVKKPGSSVKVSCKASGGTFSSYGISWVRQAPGQGLEWMGGIIPIFGSAHYAQKFQGRVTITADESTSTAYMELSSLRSEDTAVYYCAREYYYDSSEWAFDIWGQGTLVTVSSGGSGQSVLTQPPSASGTPGQRVTISCSGSSSNIGSNTVKWYQQLPGTAPKLLIYSNNQRSSGVPDRFSGSKSGSSASLAISGLQSEDEADYYCAAWDDSLNGYVFGGGTKLTVLGGSGGSEVQLVESGGGLVQPGGSLRLSCAASGFTFSTYAMNWVRQAPGKGLEWVGRIRSKYNNYATYYADSVKDRFTISRDDSKNSLYLQMNSLKTEDTAVYYCARHGNFGNSYVSYFAYWGQGTLVTVSSAAAGSHHHHHH | 3.2 pM | 
4 | 1500 pM | 300 pM | 500 pM | 300 pM |  | 900 pM | 1500 pM | 6 pM | 3 pM | 2 pM | ~0.01 pM | CD33/CD3 2×2 T-cell engager 12 (bispecific antibody, Non-covalent homodimer; also called tandom diabody 12) DIQMTQSPSSLSASVGDRVTITCRSSTGAVTTSNYANWVQQKPGKAPKALIGGTNKRAPGVPSRFSGSLIGDKATLTISSLQPEDFATYYCALWYSNLWVFGQGTKVEIKGGSGGSQVQLVQSGAEVKKPGASVKVSCKASGYTFTSYDINWVRQAPGQGLEWMGWMNPNSGNTGFAQKFQGRVTMTRDTSTSTVYMELSSLRSEDTAVYYCARDRAVTDYYYGMDVWGQGTLVTVSSGGSGQSVLTQPPSASGTPGQRVTISCSGSRSNIGSNTVNWYQQLPGTAPKLLIYGNNQRPSGVPDRFSGSKSGTSASLAISGLQSEDEADYYCATWDDSLIGWVFGGGTKLTVLGGSGGSEVQLVESGGGLVQPGGSLRLSCAASGFTFSTYAMNWVRQAPGKGLEWVGRIRSKYNNYATYYADSVKDRFTISRDDSKNSLYLQMNSLKTEDTAVYYCARHGNFGNSYVSYFAYWGQGTLVTVSSAAAGSHHHHHH | 1.3 pM | EC50, cytotoxicity on HL-60 [10]: 1.3 pM and 137 pg/mL; EC50, cytotoxicity on KG-1 [10]: 1.2 pM and 126 pg/mL; EC50, cytotoxicity on U-937 [10]: 0.8 pM and 84 pg/mL; EC50, cytotoxicity, mean of HL-60, U-937, KG-1 [10]: 1.1 pM and 116 pg/mL; EC50 (mean), redirected lysis of BV-173 cells [11]: 1.4 pM; EC50 (mean), redirected lysis of CHO-CD33 cells [11]: 11.8 pM; EC50 (mean), redirected lysis of HL-60 cells [11]: 1.4 pM; EC50 (mean), redirected lysis of K562 cells [11]: 4.5 pM; EC50 (mean), redirected lysis of KASUMI-1 cells [11]: 1.3 pM; EC50 (mean), redirected lysis of KG-1 cells [11]: 1 pM; EC50 (mean), redirected lysis of RPMI-8226 cells [11]: 14 pM; EC50 (mean), redirected lysis of THP-1 cells [11]: 1.9 pM; EC50 (mean), redirected lysis of U-937 cells [11]: 0.9 pM
5 | 6300 pM | 2800 pM | 5400 pM | 2800 pM | 37.3 | 3600 pM | 6300 pM | 9 pM | 5 pM | 6 pM | ~5 pM | CD33/CD3 2×2 T-cell engager 19 (bispecific antibody, Non-covalent homodimer) DIQMTQSPSSLSASVGDRVTITCRSSTGAVTTSNYANWVQQKPGKAPKALIGGTNKRAPGVPSRFSGSLIGDKATLTISSLQPEDFATYYCALWYSNLWVFGQGTKVEIKGGSGGSQVQLVQSGAEVKKPGASVKVSCKASGYTFTSYYMHWVRQAPGQGLEWMGIINPSGGSTSYAQKFQGRVTMTRDTSTSTVYMELSSLRSEDTAVYYCARDVVPAAIDYYGMDVWGQGTTVTVSSGGSGQSVLTQPPSASGTPGQRVTISCSGSSSNIGSNTVNWYQQLPGTAPKLLIYSDNQRPSGVPDRFSGSKSGSSASLAISGLQSDDEADYYCATWDDSLNGAVFGGGTKLTVLGGSGGSEVQLVESGGGLVQPGGSLRLSCAASGFTFSTYAMNWVRQAPGKGLEWVGRIRSKYNNYATYYADSVKDRFTISRDDSKNSLYLQMNSLKTEDTAVYYCARHGNFGNSYVSYFAYWGQGTLVTVSSAAAGSHHHHHH | 5.7 pM | 
